How the values were obtained:
Experiment in all cases: SPR off-rate screen, captured IgG4 supernatant, 25 C
[1] = molecular target: T1, human tenascin-R rCd4-His-FBG (rat; human, UniProt P05540 207-392, limits assumed)
T1 construct: domain: domains 3 and 4; C-terminal FBG fusion; also called Hu TNR; human TNR rCd4-His-FBG; not shown: 6His tag
T1 sequence (chain (part 1 of 2)): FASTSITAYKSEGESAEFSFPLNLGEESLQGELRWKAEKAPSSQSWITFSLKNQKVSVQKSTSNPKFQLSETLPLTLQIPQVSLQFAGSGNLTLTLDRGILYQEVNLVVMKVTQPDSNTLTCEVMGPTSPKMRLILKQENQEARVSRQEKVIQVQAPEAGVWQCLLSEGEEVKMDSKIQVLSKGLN
T1 sequence (chain (part 2 of 2)): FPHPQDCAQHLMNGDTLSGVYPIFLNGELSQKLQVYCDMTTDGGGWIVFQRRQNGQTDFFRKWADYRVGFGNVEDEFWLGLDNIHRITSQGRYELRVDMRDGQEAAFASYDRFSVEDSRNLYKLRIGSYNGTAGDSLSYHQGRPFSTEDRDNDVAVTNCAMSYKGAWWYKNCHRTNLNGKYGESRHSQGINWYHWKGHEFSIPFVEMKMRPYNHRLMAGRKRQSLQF
Description: (§1) The 31 scFv of interest were sub-cloned into a human IgG4 expression vector for generation of antibodies as human IgG4 with a hinge-stabilising mutation (S241P; Angal et al, 1993). […] Briefly, surface plasmon resonance (SPR) experiments were performed using a BIAcore T100 instrument and followed the protocol according to the Human antibody capture kit protocol (GE, BR-1008-39). For off-rate screening, 10,000 response units (RU) of anti-human Fc IgG (GE, BR-1008-39) was immobilised on flow-cells (FC1 and FC2) of a Series 5 CM5 dextran sensor chip (BR-1005-30) using EDC/NHS cross-linking chemistry according to the amine coupling kit protocol (GE, BR-1000-50). Culture supernatants containing expressed IgG4 were diluted 1:2 with 2×PBS-T and injected into FC2 (flowrate 5 μl/min, 60 s contact time) to enable antibody capture at 25° C. […] A fixed concentration of antigen (15 nM of human and mouse TNC rCd4-His-FBG and 100 nM of human TNR rCd4-His-FBG) was injected with a flow-path via FC 1 (reference flow cell) and FC 2 (antibody capture flow cell), with a flow rate of 30 μl/min, and the association and dissociation phases measured over 1 and 5 min time periods, respectively. Regeneration of the binding surface employed 3M MgCl₂ with 30 s contact time. Off rates were determined by reference cell subtraction and fitting the sensogram experimental data assuming a 1:1 interaction using BIAevaluation software (GE, BR-1005-97).

[2] = molecular target: T2, human tenascin-C rCd4-His-FBG (rat; human, UniProt P05540 207-392, limits assumed)
T2 construct: domain: domains 3 and 4; C-terminal FBG fusion; biotinylated in the ELISA and HTRF screens; also called Hu TNC; human TNC rCd4-His-FBG; not shown: 6His tag
T2 sequence (chain (part 1 of 2)): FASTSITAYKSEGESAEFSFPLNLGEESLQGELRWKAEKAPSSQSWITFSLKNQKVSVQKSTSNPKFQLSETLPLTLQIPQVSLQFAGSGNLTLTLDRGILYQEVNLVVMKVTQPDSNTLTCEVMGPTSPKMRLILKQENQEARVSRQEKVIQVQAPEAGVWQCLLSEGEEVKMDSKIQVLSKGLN
T2 sequence (chain (part 2 of 2)): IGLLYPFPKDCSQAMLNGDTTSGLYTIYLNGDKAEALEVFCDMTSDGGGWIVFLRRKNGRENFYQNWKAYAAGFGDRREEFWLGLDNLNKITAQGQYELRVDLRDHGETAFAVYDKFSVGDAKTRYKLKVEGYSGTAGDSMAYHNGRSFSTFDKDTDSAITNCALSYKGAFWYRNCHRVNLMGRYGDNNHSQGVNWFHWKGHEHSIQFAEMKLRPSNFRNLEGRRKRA
Description: as §1

[3] = molecular target: T3, mouse tenascin-C rCd4-His-FBG (rat; mouse, UniProt P05540 207-392, limits assumed)
T3 construct: domain: domains 3 and 4; C-terminal FBG fusion; biotinylated in the ELISA screen; also called Mu TNC; mouse TNC rCd4-His-FBG; not shown: 6His tag
T3 sequence (chain (part 1 of 2)): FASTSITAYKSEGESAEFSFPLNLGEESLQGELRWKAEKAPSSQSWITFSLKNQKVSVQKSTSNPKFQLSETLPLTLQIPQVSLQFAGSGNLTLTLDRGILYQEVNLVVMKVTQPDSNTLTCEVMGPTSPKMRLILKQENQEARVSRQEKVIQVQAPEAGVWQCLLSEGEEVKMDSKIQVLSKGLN
T3 sequence (chain (part 2 of 2)): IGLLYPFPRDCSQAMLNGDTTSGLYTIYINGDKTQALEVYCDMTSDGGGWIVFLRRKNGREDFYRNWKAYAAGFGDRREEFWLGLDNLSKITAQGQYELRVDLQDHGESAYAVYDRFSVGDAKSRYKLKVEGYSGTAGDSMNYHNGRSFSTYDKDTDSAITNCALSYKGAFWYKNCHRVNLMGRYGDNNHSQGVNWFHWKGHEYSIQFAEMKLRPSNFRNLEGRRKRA
Description: as §1

Row | Binder | koff [1] [s⁻¹] | koff [2] [s⁻¹] | koff [3] [s⁻¹]
1 | 160_01_G2 human IgG4 (antibody, V domains shown, human IgG4 with hinge S241P; also called Antibody 160 01 G2 (derived from 2A5)) VH: EVRLVQSGAEVKKPGASVKVSCKVSGYTLTELSMHWVRQAPGKGLEWMGGFDPEDGETIYAQKFQGRVTMTEDTSTDTAYMELSSLRSEDTAVYYCATYTLDNMALTYWGQGTLVTVSS VL: DIQMTQSPASLPTSVGDRVTITCRASQYIQGFLNWYQQKPGKAPRLLIYAASTLQDGVPSRFSGSGYGTDFTLTISSLQPEDFATYYCQQSYSTPWTFGQGTKVEIKR | 0.001 | 1.25e-05 | 1.39e-05
2 | 161_01_A12 human IgG4 (antibody, V domains shown, human IgG4 with hinge S241P; also called Antibody 161 01 A12 (derived from 2A5)) VH: EVRLVQSGAEVKKPGASVKVSCKVSGYTLTELSMHWVRQAPGKGLEWMGGFDPEDGETIYAQKFQGRVTMTEDTSTDTAYMELSSLRSEDTAVYYCATAQPTALANTYWGQGTLVTVSS VL: DIQMTQSPASLPTSVGDRVTITCRASQYIQGFLNWYQQKPGKAPRLLIYAASTLQDGVPSRFSGSGYGTDFTLTISSLQPEDFATYYCQQSYSTPWTFGQGTKVEIKR | 0.0042 | 1.3e-06 | 4.3e-06
3 | 161_01_C09 human IgG4 (antibody, V domains shown, human IgG4 with hinge S241P; also called Antibody 161 01 C09 (derived from 2A5)) VH: EVRLVQSGAEVKKPGASVKVSCKVSGYTLTELSMHWVRQAPGKGLEWMGGFDPEDGETIYAQKFQGRVTMTEDTSTDTAYMELSSLRSEDTAVYYCATAQLPYLAQTYWGQGTLVTVSS VL: DIQMTQSPASLPTSVGDRVTITCRASQYIQGFLNWYQQKPGKAPRLLIYAASTLQDGVPSRFSGSGYGTDFTLTISSLQPEDFATYYCQQSYSTPWTFGQGTKVEIKR | 0.00029 | 1.17e-07 | 2.3e-07
4 | 161_01_F6 human IgG4 (antibody, V domains shown, human IgG4 with hinge S241P; also called 160_01_F6; Antibody 161 01 F6, also known as 160 01 F6 (derived from 2A5)) VH: EVRLVQSGAEVKKPGASVKVSCKVSGYTLTELSMHWVRQAPGKGLEWMGGFDPEDGETIYAQKFQGRVTMTEDTSTDTAYMELSSLRSEDTAVYYCATAQKENIANRHWGQGTLVTVSS VL: DIQMTQSPASLPTSVGDRVTITCRASQYIQGFLNWYQQKPGKAPRLLIYAASTLQDGVPSRFSGSGYGTDFTLTISSLQPEDFATYYCQQSYSTPWTFGQGTKVEIKR | 0.0025 | 2.8e-06 | 0.00171
5 | 161_01_H10 human IgG4 (antibody, V domains shown, human IgG4 with hinge S241P; also called Antibody 161 01 H10 (derived from 2A5)) VH: EVRLVQSGAEVKKPGASVKVSCKVSGYTLTELSMHWVRQAPGKGLEWMGGFDPEDGETIYAQKFQGRVTMTEDTSTDTAYMELSSLRSEDTAVYYCATAQPVWAPGTYWGQGTLVTVSS VL: DIQMTQSPASLPTSVGDRVTITCRASQYIQGFLNWYQQKPGKAPRLLIYAASTLQDGVPSRFSGSGYGTDFTLTISSLQPEDFATYYCQQSYSTPWTFGQGTKVEIKR | 0.0091 | 2.5e-05 | 1.9e-06
6 | 162_02_C3 human IgG4 (antibody, V domains shown, human IgG4 with hinge S241P; also called Antibody 162 02 C3 (derived from 2A5)) VH: EVRLVQSGAEVKKPGASVKVSCKVSGYTLTELSMHWVRQAPGKGLEWMGGFDPEDGETIYAQKFQGRVTMTEDTSTDTAYMELSSLRSEDTAVYYCATAQKETYALTYWGQGTLVTVSS VL: DIQMTQSPASLPTSVGDRVTITCRASQYIQGFLNWYQQKPGKAPRLLIYAASTLQDGVPSRFSGSGYGTDFTLTISSLQPEDFATYYCMQHYDGPWTFGQGTKVEIKR | 0.635 | 1.49e-06 | 0.002
7 | 162_02_C6 human IgG4 (antibody, V domains shown, human IgG4 with hinge S241P; also called Antibody 162 02 C6 (derived from 2A5)) VH: EVRLVQSGAEVKKPGASVKVSCKVSGYTLTELSMHWVRQAPGKGLEWMGGFDPEDGETIYAQKFQGRVTMTEDTSTDTAYMELSSLRSEDTAVYYCATAQKETYALTYWGQGTLVTVSS VL: DIQMTQSPASLPTSVGDRVTITCRASQYIQGFLNWYQQKPGKAPRLLIYAASTLQDGVPSRFSGSGYGTDFTLTISSLQPEDFATYYCQNQYAGPWTFGQGTKVEIKR | 0.028 | 5.3e-06 | 0.00024
8 | 162_02_D3 human IgG4 (antibody, V domains shown, human IgG4 with hinge S241P; also called Antibody 162 02 D3 (derived from 2A5)) VH: EVRLVQSGAEVKKPGASVKVSCKVSGYTLTELSMHWVRQAPGKGLEWMGGFDPEDGETIYAQKFQGRVTMTEDTSTDTAYMELSSLRSEDTAVYYCATAQIHPLGLTYWGQGTLVTVSS VL: DIQMTQSPASLPTSVGDRVTITCRASQYIQGFLNWYQQKPGKAPRLLIYAASTLQDGVPSRFSGSGYGTDFTLTISSLQPEDFATYYCQQSYSTPWTFGQGTKVEIKR | 0.0064 | 3.9e-07 | 1.06e-06
9 | 162_02_F3 human IgG4 (antibody, V domains shown, human IgG4 with hinge S241P; also called Antibody 162 02 F3 (derived from 2A5)) VH: EVRLVQSGAEVKKPGASVKVSCKVSGYTLTELSMHWVRQAPGKGLEWMGGFDPEDGETIYAQKFQGRVTMTEDTSTDTAYMELSSLRSEDTAVYYCATAQKETYALTYWGQGTLVTVSS VL: DIQMTQSPASLPTSVGDRVTITCRASQYIQGFLNWYQQKPGKAPRLLIYAASTLQDGVPSRFSGSGYGTDFTLTISSLQPEDFATYYCQNQYRGPWTFGQGTKVEIKR | 0.088 | < 1e-05 | 0.00033
10 | 162_02_H5 human IgG4 (antibody, V domains shown, human IgG4 with hinge S241P; also called Antibody 162 02 H5 (derived from 2A5)) VH: EVRLVQSGAEVKKPGASVKVSCKVSGYTLTELSMHWVRQAPGKGLEWMGGFDPEDGETIYAQKFQGRVTMTEDTSTDTAYMELSSLRSEDTAVYYCATAQKETYALTYWGQGTLVTVSS VL: DIQMTQSPASLPTSVGDRVTITCRASQYIQGFLNWYQQKPGKAPRLLIYAASTLQDGVPSRFSGSGYGTDFTLTISSLQPEDFATYYCQNQYTGPWTFGQGTKVEIKR | 0.082 | < 1e-05 | 0.000167
11 | 165_13_D1 human IgG4 (antibody, V domains shown, human IgG4 with hinge S241P) VH: QVQLVESGGGLVQPGRSLRLSCAASGFTFDDYAMHWVRQAPGKGLEWVSGISGSGGSTYYADSVKGRFTISRDNAKNSLYLQMNSLRAEDTALYYCAKGTRGEGDTFDIWGQGTMVTVSS VL: DIQMTQSPASLPTPVGDRVTITCRASQYIQGFLNWYQQKPGKAPKLLIYDASNLETGVPSRFSGSGSGTDFTLTISSLQPEDFATYYCQQSYSTPQTFGQGTKVDIKR | 0.0043 | 1.4e-07 | 3.9e-06
